From patent US12552837
*1 amine or outer side, *2 acyl side, *3 side chain or, on linkers, in order; H or OH if unused. Bridges are numbered along the chain shown (N, C = ends). [ ]: non-standard residue; d: D form. The star is where a group is joined. DOTA = O=C(O)CN1CCN(CC(=O)O)CCN(CC(=O)*)CCN(CC(=O)O)CC1; 1Nal = N[C@@H](Cc1cccc2ccccc12)C(=O)O; TBMB = c1c(C[*:1])cc(C[*:3])cc1C[*:2]; Tle = CC(C)(C)[C@H](N)C(=O)O

Target: membrane type 1-matrix metalloproteinase (MT1-MMP), P50281
Assay: not stated at the place; fluorescence polarization with MT1-MMP hemopexin domain per Examples 7-8

Kd: 0.52 nM
B1: I-23 (peptide)
peptide: {DOTA}-AC[dA]NE[1Nal][dA]CEDFYD[Tle]C-NH2
modifications: linker 2-8-15 via TBMB
SMILES: C[C@H](NC(=O)CN1CCN(CC(=O)O)CCN(CC(=O)O)CCN(CC(=O)O)CC1)C(=O)N[C@H]1CSCc2cc3cc(c2)CSC[C@H](NC(=O)[C@@H](C)NC(=O)[C@H](Cc2cccc4ccccc24)NC(=O)[C@H](CCC(=O)O)NC(=O)[C@H](CC(N)=O)NC(=O)[C@@H](C)NC1=O)C(=O)N[C@@H](CCC(=O)O)C(=O)N[C@@H](CC(=O)O)C(=O)N[C@@H](Cc1ccccc1)C(=O)N[C@@H](Cc1ccc(O)cc1)C(=O)N[C@@H](CC(=O)O)C(=O)N[C@@H](C(C)(C)C)C(=O)N[C@H](C(N)=O)CSC3
